Data reported in the nanobody polyreactivity screen of Harvey et al. (2022).

Assay: yeast display, Sf9 membrane polyspecificity reagent, FACS + sequencing; frameworks hold sequencing errors
How it was run: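 Galactose-induced (36–48 hours) yeast carrying a synthetic nanobody display library were exposed to 10% biotinylated, detergent-solubilized Sf9 membrane reagent at 4 °C for 1 hour. FACS followed streptavidin microbead enrichment, using low and high (top ~1%) gates for expression (anti-HA) and reagent binding (streptavidin). Colony PCR, MiSeq 2 × 250 sequencing and CDR-length filtering followed. Labels for polyreactivity reflect the gate of origin.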

Row | Sequence | polyreactivity (PSR sort gate)
1 | QVQIVESGGGLVQAGGSLRLSCAASGSIFGTYAMGRYRQAPGKERELVAAINSGDSTYYADSVKGRFTISRDNAKNTVYLQMNSLKPEDTAVYYCGARETYWSGYFIYYYWGQGTQVNVSS | high polyreactivity
2 | QVQLVESGGGLVQAGGSLRLSCAASGFTFGGYAMGWYRQAPGKERELVAAISKSGGRTYYADSVKGRFTISRDNAKNTVYLQMNSLKPEDTAVYYCAASTIWHYDSWGQGTQVTVSS | high polyreactivity
3 | QVQLVESGGGLVQAGGSLRLSCAASGSTFSTNFMGWYRQAPGKERELVAAISTIGGSTYADSVKGRFTISRDNAKNTVYLQMNSLKPEDTAVYYCAAVFRVRRKTYGYWGQGTQVTVSS | high polyreactivity
4 | QVQLVESGGGLVQAGGSLRLSCAASGFIFWLYAMGWYRQAPGKERELVAAISRSGGRTYYADSVKGRFTISRDNAKITVYLQMNSLKPEDTAVYYFAKVDNYKSYPYDYWGQGTQVTVSS | high polyreactivity
5 | QVQLVESGGGLVQAGGSLRLSCAASGLIFRWYAMGWYRTAPGKERELVAAISRRGGTTNYADSVKGRFTISRDNAKNTVYLQMNSLKPDDTAVYYCAADYQSVGGAEYDYWGQGTQVTVSS | high polyreactivity
6 | QVQLVESGGGLVQAGGSLRLSCAASGFIFASYAMGWYRQAPGKERELVATITRNGGITYYADSVKGRFTISRDNAKNTVYLQMNSLKPEDTAVYYCAKRRSGKSNVSFYPYAYDYWGQGTQVTVSS | low polyreactivity
7 | QVQLVESGGGLVQAGGSLRLSCAASGIIFFDYAMGWYRQAPGKERELVAAISSGGGNTYYADSVKGRFTISRDNAKNTVYLQMNSLNPEDTAVDYCAAEPYIYGEQGAYDYWGQGTQVTVSS | low polyreactivity
8 | QVQLVESGGGLVQAGGSLRLSCAASGSTFRSYAMGWYRQAPGKEWELVAAISGDGSTNYADSVKGRFTISRDNAKNTVYLQMNSLKPEDTAVSYCAKDPGYPAPYYDYYYWGQGTQVTVSS | low polyreactivity
9 | QVQLVESGGGLVQAGGSLRLSCAASGRTFDWNAMGWYRQAPGKERELVAAITYSGGGTYYADSVKGRFTISRDNAKNTVYLQMNSLKPEDTAVYYCAAGYPGTWSYYYWGQGTQVTVSS | low polyreactivity
10 | QVQLVESGGGLVQAGGSLRLSCAASGIIFSGYAKGWSRQAPGKERELVAAISYSGASTYYADSVKGRFTISRDNAKNSVYLLMNSLKPEDTAVYFCAADRRYGRYWNGWSYYYWGQGTQVTVSS | high polyreactivity
11 | QVQLVESGGGLVQAGGSLRLSCAASGRTFWGYGMGWYRQAPGKERELVATISSGGSTYYADSVKGRFTISRDNAKNTVYLQMNSLKPEDTAVYYCAARPPRTYWRYQSDYWGQGTQLTVSS | high polyreactivity
12 | QVHLVESGGGLVQAGGSLRLSCAASGSIFGPNAMGWYRPAPGKERELVAAINGGTGTFYADSVKGRFTISRDNAKHTVYLQMNSLKPEDTAVYYCAADYGTHYFVRYYYWGQGTEVTVSS | high polyreactivity
13 | QVQLVESGGGLVQAGGSLRLSCAASGRISHYNAMGWYRQAPGKERELVAAISSRGGSTYYADSVKGRFTISRDNAKNTVYLQMNSLKPEDTAVYYCADTAGYWGQGTQVTVSS | high polyreactivity
14 | QVQLVESGGGLVQAGGSLRLSCAASAFIFIIYAMGWYRQAPGKERELVAGIRWSGGSTYYADSVKGRFTISRDNAKNTVYLQMNSLKQEDTAVYYCNKDRGSLTLYTYDYWGQGTQVTVSS | low polyreactivity
15 | QVQLVESGGGLVQAGGSLRLSCAASGRTSNVYAMGWYRQAPGKERELVAAISSRDGTTYYADSVKGRFTISRDNAKNTVYLQMNSLKPEDTAVYYCAAAVLSYADYYYDYEYWGQGTQVTVSS | high polyreactivity
16 | QVQLVESGGGLVQAGGSLRLSCAASGNIFARYAMGWYRQAPGKERELVAAISRSGGSTYYADSVKGRFTISRDNAKNTVYLQMNSLKPEDTAVYYCNAKSYGVLYWFAYDYWGQGTQVTVSS | high polyreactivity
17 | QVQLVESGGGLVQAGGSLRLSCAASGSTFRRYTMGWYRQAPGKERELVAAISRSAGSTSYADSVKGRFTISRDNAKNTVYLQMNSLKPEDTAVYYCNARVPLRQYSNYYWGQGTQVTVSS | high polyreactivity
18 | QVQLVESGGGLVKAGGSLRLSCVASGLMFGYCAMGWYRQPPGTERELVAVISWSGTSRYYADSVKGRFTISRDNAKNTVYLQMNSLKPEDTAVYYCIADTYGYYLWTGAVSAGDDYWVQGTQVTVSS | low polyreactivity
19 | QVQLVESGGGLVQAGGSLRLSCAASGSTFEYNAMGWYRQAPGKERELVASSTNYADSVKGRFTISRDNAKNTVYLQMNSLKPEDTAVYYCARVQGVNRNHDYWGQGTQVTVSS | low polyreactivity
20 | QVQQQESGGGLVQAVGSLRLSCAASGTIIQLTVMGRYRQAPGKERELVASIDYGGNTNYADSVKGRFTISRDNAKNTVYLHMNSLKPEDTAVYYCAKESRPAEGDSGYDYWGQGTLVTVSS | low polyreactivity
21 | QVQLVVSGGGLVQAGGSLRLSCAPSGRTFKPYVMGWYRQAPGKERELVAAISSRGGSTYYADSVKGRFTISRDNEKTTVFLQMNSLKPEDTAVYYCNAAYWFSNKNGYWGQGTQVTVSS | high polyreactivity
